{"source": "paper PMC8654365", "key": {"[1]": {"target": "HA-tagged RON (Recepteur d'Origine Nantais, MST1R) stably expressed in A431 cells (human)", "sequence (Q04912 25-304 limits assumed, chain 1 of 2)": "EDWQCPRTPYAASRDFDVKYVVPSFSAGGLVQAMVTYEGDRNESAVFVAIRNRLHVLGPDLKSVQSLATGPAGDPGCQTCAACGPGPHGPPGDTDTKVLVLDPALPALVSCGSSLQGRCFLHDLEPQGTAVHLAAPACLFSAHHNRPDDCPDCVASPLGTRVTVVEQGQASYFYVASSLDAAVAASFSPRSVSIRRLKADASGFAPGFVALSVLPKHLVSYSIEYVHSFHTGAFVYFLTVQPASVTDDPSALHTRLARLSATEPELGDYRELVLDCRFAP", "sequence (Q04912 310-1400 limits assumed, chain 2 of 2)": "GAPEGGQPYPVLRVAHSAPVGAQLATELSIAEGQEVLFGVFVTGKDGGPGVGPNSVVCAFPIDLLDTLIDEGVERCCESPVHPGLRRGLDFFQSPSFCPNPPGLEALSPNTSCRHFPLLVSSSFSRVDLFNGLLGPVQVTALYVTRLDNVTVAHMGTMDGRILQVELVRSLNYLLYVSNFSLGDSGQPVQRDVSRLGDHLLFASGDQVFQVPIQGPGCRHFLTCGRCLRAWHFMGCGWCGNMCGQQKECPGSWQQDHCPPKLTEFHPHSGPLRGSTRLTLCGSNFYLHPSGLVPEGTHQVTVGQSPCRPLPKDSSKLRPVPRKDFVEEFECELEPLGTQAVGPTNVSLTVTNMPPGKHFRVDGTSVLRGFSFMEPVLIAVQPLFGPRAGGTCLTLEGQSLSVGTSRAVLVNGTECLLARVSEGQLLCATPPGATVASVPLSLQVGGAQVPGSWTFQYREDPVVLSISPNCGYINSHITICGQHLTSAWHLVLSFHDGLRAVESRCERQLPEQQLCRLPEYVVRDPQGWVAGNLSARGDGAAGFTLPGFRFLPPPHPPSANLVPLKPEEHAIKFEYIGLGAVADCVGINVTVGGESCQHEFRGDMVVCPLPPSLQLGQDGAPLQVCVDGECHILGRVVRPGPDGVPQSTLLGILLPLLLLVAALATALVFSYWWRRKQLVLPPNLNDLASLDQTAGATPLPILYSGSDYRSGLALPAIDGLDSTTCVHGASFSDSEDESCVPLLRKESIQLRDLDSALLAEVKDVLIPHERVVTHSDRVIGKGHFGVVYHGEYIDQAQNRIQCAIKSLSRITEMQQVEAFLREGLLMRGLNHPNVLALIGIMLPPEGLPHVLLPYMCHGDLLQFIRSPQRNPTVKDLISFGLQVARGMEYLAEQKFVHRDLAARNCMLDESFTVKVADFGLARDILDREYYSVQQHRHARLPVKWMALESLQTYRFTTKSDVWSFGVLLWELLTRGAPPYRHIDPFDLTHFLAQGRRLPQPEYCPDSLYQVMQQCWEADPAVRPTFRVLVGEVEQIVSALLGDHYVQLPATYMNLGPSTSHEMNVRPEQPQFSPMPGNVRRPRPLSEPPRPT", "assay": "two-colour single quantum dot tracking with two-state hidden Markov model; live A431^RON cells; 200 pM anti-HA-QD655 on HA-RON, then 50 pM QD605-conjugated EGF-biotin on endogenous EGFR; 34–36 °C, 20 frames per s; off-rate of hetero-interactions"}, "[2]": {"target": "HA-tagged RON (Recepteur d'Origine Nantais, MST1R) stably expressed in A431 cells (human)", "assay": "two-colour single quantum dot tracking with two-state hidden Markov model; live A431^RON cells, no ligand; HA-RON labelled with a mixture of anti-HA-QD605 and anti-HA-QD655 (monovalent Fab); 34–36 °C, 20 frames per s; off-rate of RON/RON homo-interactions"}}, "data": [{"substance": "EGF-bound EGFR (QD-conjugated EGF-biotin on endogenous EGFR of live A431^RON cells) (from UniProt P00533 25-1210) (complex)", "values": [{"measurement": "average lifetime", "setting": "[1]", "value": 2, "unit": "s"}, {"measurement": "koff", "setting": "[1]", "value": 0.49, "unit": "s⁻¹"}]}, {"substance": "HA-tagged RON (Recepteur d'Origine Nantais, MST1R) stably expressed in A431 cells (receptor)", "values": [{"measurement": "average lifetime", "setting": "[2]", "value": 5.5, "unit": "s"}, {"measurement": "koff", "setting": "[2]", "value": 0.18, "unit": "s⁻¹"}]}]}
